Experimental data as given in the nanobody polyreactivity screen of Harvey et al. (2022).

Experiment: yeast display, Sf9 membrane polyspecificity reagent, FACS + sequencing; frameworks hold sequencing errors
Procedure, shortened: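 Genes from sorted yeast were amplified by colony PCR, read by MiSeq 2 × 250 sequencing and filtered on CDR length. These cells carried a synthetic nanobody library in Saccharomyces cerevisiae BJ5465 and were sorted by FACS into low and high (top ~1%) gates on anti-HA and streptavidin fluorescence. Polyreactivity is labelled according to the gate of origin.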

| Sequence | polyreactivity (PSR sort gate) |
| --- | --- |
| QVQLVESGGGLVQAGGSLRLSCAASGRIFYGNTMGWYRQAPGKERELVAAITIGDSTNYADSVKGRFTISRDNAKNTVYLQMNSLKPEDTEVYFCAKRNWWGYYKYDYWGQGTQVTVSS | low polyreactivity |
| QVQLVESGGGLVQAGGSLRLSCAASGRIFYGYAMGWYRQAPGKERELVAAISKSGTRTYYADSVKGRFTISRDNAKNTVYLQMNSLKPEDTAVFYCNARGYPYDTYNEYYYWGQGTQVTVSS | high polyreactivity |
| QVQLVESGGGLVQAGGSLRLSCAASGRIFYGYAMGWYRQAPGKERELVAAISWRGGRTYYADSVKGRFTISRDNAKNTVYLQMNSLKPEDTAVYYCNKDFPPQGQLRNMYYWGQGTQVTVSS | high polyreactivity |
| QVQLVESGGGLVQAGGSLRLSCAASGRIFYGYAMGWYRQAPGKERELVAGISYRGARTYYADSVKGRFTISRDNAKNTVYLQMNSLKPEDTAVYYCNAVPYYPFAFGALDYWGQGTQVTVSS | high polyreactivity |
| QVQLVESGGGLVQAGGSLRLSCAASGRIFYGYTMGWYREAPGIERELVASITIRGSRTYYADSVKGRFTISRDNAKNTVYLQMTSLKPEDTAVYYCAADFVPARTVHRYDYWGQGTQVTVSS | low polyreactivity |
| QVQLVESGGGLVQAGGSLRLSCAASGRIFYGYTMGWYRQAPGKERELVAAITQRGGNTHYADSVKGRFTISRDNGKNTVYLHMNRLKPEDTAVYYCAAKYYPYVRGVQYYYWGQGTQVTVSS | high polyreactivity |
| QVQLVESGGGLVQAGGSLRLSCAASGRIFYINAMGWYRQAPGKEMELVAAITGSVGSTYYADSVKGRFTISRDNAKNTVYLLMNSQKPEDTAVYYCAASDQPYNGGDGDYWGQGTQVTVSS | low polyreactivity |
| QVQLVESGGGLVQAGGSLRLSCAASGRIFYINDMGCYRQAPGKEREFVASITGSGGRTYYADSVKGRFTISRDNAKNTVYLQMNSLKPEDTAVYYCNADLYVGYLYYLYDYWGQVTQVTVSS | low polyreactivity |
| QVQLVESGGGLVQAGGSLRLSCAASGRIFYKNAMGWYRQAPGKERELVATITYSDGTTYYADSVKGRFTISRDNAKNTVYLQMNSLKPEDTAVYYCAAQTDSVESDYWGQGTQVTVSS | low polyreactivity |
| QVQLVESGGGLVQAGGSLRLSCAASGRIFYKYAMGWYRQAPGKERELVAAISTGGTRTYYADSVKGRFTISRDNAKNTVYLQMNSLKPEDTAVYYCAARGGDKTYYYWGQGTQVTVSS | high polyreactivity |
| QVQLVESGGGLVQAGGSLRLSCAASGRIFYKYAMGWYRQAPGKERELVAAITTSGGSTYYADSVKGRFTISRDNAKNTVYLQMNSLKPEDTAVYYCARDLNGRFLTTGRGMDYWGQGTQVTVSS | high polyreactivity |
| QVQLVESGGGLVQAGGSLRLSCAASGRIFYLNVMGWYRQAPGKERELVAAITRRDVTTYADSVKGRFTISRDNAKNTVYLQMKSLKPEDTAFYYCNAVYYNWIGFDYWGQGTQVTVSS | low polyreactivity |
| QVQLVESGGGLVQAGGSLRLSCAASGRIFYLYAMGWYRQAPGKERELVAAITWSGGSTYYADSVKGRFTISRDNAKNTVYLQMNSLKPEDTAVYYCARDDAYSDFDYDYWGQGTQVTVSS | low polyreactivity |
| QVQLVESGGGLVQAGGSLRLSCAASGRIFYLYAMGWYRQAPGKERELVARITSGSGTYYADSVKGRFTISRDNAKNTVYLQMNSLKPEDTAVYYCAAREPGVGYVGHYTGLDYWGQGTQVTVSS | low polyreactivity |
| QVQLVESGGGLVQAGGSLRLSCAASGRIFYLYAMGWYRQAPGKERELVATINTSGGITYYADSVKGRFTISRDNAKNTVYLQMNSLKPEDTAVYYCNADWEWLYFYFRPGGYWGQGTQVTVSS | low polyreactivity |
| QVQLVESGGGLVQAGGSLRLSCAASGRIFYLYTMGWYRQAPGKEREFSTYYADSVKGRFTISRDNAKNTVYLQMNSLKPEDTAVYYCNKGSDGFTTGEGDYWGQGTQVTVSS | low polyreactivity |
| QVQLVESGGGLVQAGGSLRLSCAASGRIFYLYTMGWYRQAPGKERELVAASTRAGRTYYADSVKGRFTISRDNAKNTVYLQMNSLKPEDTAVYYCAAAFLSRVQGYDSWGQGTQVTVSS | high polyreactivity |
| QVQLVESGGGLVQAGGSLRLSCAASGRIFYNNAMGWYRQAPGKERELVAAIDWPGGSTDYADSVKGRFTISRDNAKNTVYLQMNSLKPEDTAVYYCVAGHVPYWHGNSYDYWGQGTQVTVSS | low polyreactivity |
| QVQLVESGGGLVQAGGSLRLSCAASGRIFYNNAMGWYRQAPGKERELVASITRNGGRTYYADSVKGRFTISRDNAKNTVYLKMNSLKREDTAVYYCAIDYSRGQIRAGAYEYWGQGTQVTVSS | high polyreactivity |
| QVQLVESGGGLVQAGGSLRLSCAASGRIFYPNAMGWYRQAPGKERELVASISRGGPTSYADSVKGRFTISRDNAKNTVYLQINSLKPEDTAVYDCAADVAWYRYRSYYWGQGTQVTVSS | high polyreactivity |
| QVQLVESGGGLVQAGGSLRLSCAASGRIFYPNTMGWYIQAPGKERELVAAISRSGGSTYYTDSVKGRFTISRDNAKNTVYLQMNSLKPEDTAVYYCATVPYESRYDYWGQGTQVTVSS | high polyreactivity |
| QVQLVESGGGLVQAGGSLRLSCAASGRIFYPYAMGWSRQAPGKERELVAAISSSAGITYYADSVKGRFTISRDNAKKTVYLQMNSLKPEDTAVYYCAKYPVRNPYGYRYDYWGQGTQVTVSS | high polyreactivity |

| Sequence | polyreactivity (PSR sort gate) |
| --- | --- |
| QVQLVESGGGLVQAGGSLRLSCAASGRIFYPYAMGWYIQAPGKERELVADISIGGSTNYADSVKGRFTISRDNAKNTVYLQMNSLKPEDTAVYYCNAGGGFYGSTVEHDYWGQGTQVTVSS | low polyreactivity |
| QVQLVESGGGLVQAGGSLRLSCAASGRIFYPYAMGWYRQAPGKERELVAAITWSTGRTYYADSVKGRFTISRDNAKNTVYLQMNSLKPEDTAVYYCAATGTLKRRYGYWGQGTQVTVSS | high polyreactivity |
| QVQLVESGGGLVQAGGSLRLSCAASGRIFYPYAMGWYRQAPGKERELVGYSRGGSTNYADSVKGRFTISRDNAKNTVYLQMNSLKPEDTAVYYCARDVHRSGYLIFDYWGQGTQVTVSS | low polyreactivity |
| QVQLVESGGGLVQAGGSLRLSCAASGRIFYPYAMVWYRQAPGKERELVAGISFRDGSRYYADSVKGRFTISRDNAKNTVYLQMNSLKPEDTAFYYSAAVGQTHTTSPLSTKFDYWGQGTQVTVSS | low polyreactivity |
| QVQLVESGGGLVQAGGSLRLSCAASGRIFYPYFMGWYRQAPGKERELVAAISASGGRTYYADSVKGRFTISRDNSKNTVYLQMNSLKPEDTAVYYCNARTVPAGTLYDYWGQGTQVTVSS | low polyreactivity |
| QVQLVESGGGLVQAGGSLRLSCAASGRIFYPYSMGWYRQAPGKERELVATITYIGGSTYADSVKGRFTISRDNAKNTVYLQMNSLKPEDTAVYYCAASETYFRFPFGIYYYWGQGTQVTVSS | low polyreactivity |
| QVQLVESGGGLVQAGGSLRLSCAASGRIFYQNALGWYRQAPGKERELVADITSGGSTYYADSVKGRFTISRDNAKNTVYLQMNSLKPEDTAVYDCNTPSGPGTVGSYRRKWYGYWGQGTQVTVSS | low polyreactivity |
| QVQLVESGGGLVQAGGSLRLSCAASGRIFYQNVMGWYRQAPGKERELVAAITRRDVTTYADSVKGRFTISRDNAKNTVYLQMNSLKPEDTAVYYCNAVYYNWIGFDYWGQGTQVTVSS | low polyreactivity |
| QVQLVESGGGLVQAGGSLRLSCAASGRIFYQYAMGWYRQAPGKEREMVAAISRRGASTYYADSVKGRFTISRDNAKNTVYLQMNSLKPEDTAVYYCAAEPRAYSHQYNYWGQGTQVTVSS | high polyreactivity |
| QVQLVESGGGLVQAGGSLRLSCAASGRIFYRNAMGWYRQAAGKERELVAGITRGGSTNYADSVKGRFTISRDNAKNTDYLQMNSLKPEETAVYYCAKAIPAKFYSEAGYDYWGQGTQVTVSS | low polyreactivity |
| QVQLVESGGGLVQAGGSLRLSCAASGRIFYRNAMGWYRQAPGKERELVAAIRGSGGRTYYADSVKGRFTISRDNAKNTVYLQMNSLKPEDTAVYYCAAYGYYVEHPRGLSGPYDDDYWGQGTQVTVSS | low polyreactivity |
| QVQLVESGGGLVQAGGSLRLSCAASGRIFYRNAMGWYRQAPGKERELVAAISSSAGSTYYADSVKGRFTISRDNAKNTVYLQMNSLKPEDTAVYYCAAGSGTFVTRYRYGYWGQGTQVTVSS | high polyreactivity |
| QVQLVESGGGLVQAGGSLRLSCAASGRIFYRNAMGWYRQAPGQERELVAAISKSGGSTYYADSVKGRFTISRDNAKNTVYLQMNSLKPEDTAVYYSAAGTRRTDGYSWGQGTQVTVAS | high polyreactivity |
| QVQLVESGGGLVQAGGSLRLSCAASGRIFYRNTMGWYRQAPGKERELVAPITSSGASTYYADSVKGRFTISRDIAKNTVYLQMNSLKPEDTAVYFCGAQPYVEGTKRYYWGQGTQVTVSS | high polyreactivity |
| QVQLVESGGGLVQAGGSLRLSCAASGRIFYRYAMGWYRQAPGKERELVAAIRYSGGRTYYADSVKGRFTISRDNAKNTVYLQMNSLKPEDTAVYYCAARGWYKSDYWGQGTQVTVSS | low polyreactivity |
| QVQLVESGGGLVQAGGSLRLSCAASGRIFYRYAMGWYRQAPGKERELVAAITGSGGRTYADSVKGRFTISRDNAKNTVYLQMNSLKPEDTAVYYCNDRSFCPTESRYDYWGQGTQVTVSS | high polyreactivity |
| QVQLVESGGGLVQAGGSLRLSCAASGRIFYRYAMGWYRQAPGKERELVAAITQSGGSTFYADSVKGRFTISRDNAKNTVYLQMNSLKPEDTAVYYCNRRGPGFYSTRFNYWGQGTQVTVSS | high polyreactivity |
| QVQLVESGGGLVQAGGSLRLSCAASGRIFYRYAMGWYRQAPGKERELVADITWRGGRTYYADSVKGRFTISRDNAKNTVYLQMNSLKPEDTAVYYCAATGGFYYWGQGTQVTVSS | low polyreactivity |
| QVQLVESGGGLVQAGGSLRLSCAASGRIFYRYAMGWYRQAPGKERELVARITSSGSTNYADSVKGRFTISRDNAKNTVYLQMNSLKPEDTAVYYCAARKLFIPKYYYWGQGTQVTVSS | high polyreactivity |
| QVQLVESGGGLVQAGGSLRLSCAASGRIFYRYAMGWYRQAPGKERELVASITRSGITHYADSVKGRFTISRDNAKNTVYLQMNSLKPEDTAVYYCNARRGSPAPYDYWGQGTQVTVSS | high polyreactivity |
| QVQLVESGGGLVQAGGSLRLSCAASGRIFYRYAMGWYRQAPGKERELVASITSGGSTTYYADSVKGRFTISRDNAKNTVYLQMNSLKPEDTAVYYCAARPRYRKEYDYWGQGTQVTVSS | high polyreactivity |
